In patent US20230192896A1 (published 2023) one finds Kd data, which are given here for 17 molecules.

In the assay the target is free FIXa (activated Factor IX) (UniProt P00740 47-191; P00740 227-461). Nature of the assay: BLI. A general note: In BLI a coated tip is dipped into the sample, and binding shifts an interference pattern.

Changes are numbered by the printed parent chain.

B1: BIIB-9-558 (antibody, V domains shown)
VH: EVQLVESGGGLVKPGGSLRLSCAASGFTFSSYSMNWVRQAPGKGLEWVSSISSSSSYIYYADSVKGRFTISRDNAKNSLYLQMNSLRAEDTAVYYCARSYGYGYHDFDLWGRGTLVTVSS
VL: DIQMTQSPSTLSASVGDRVTITCRASQSIGSWLAWYQQKPGKAPKLLIYKASSLESGVPSRFSGSGSGTEFTLTISSLQPDDFATYYCQQAGSYSFTFGGGTKVEIK
In turn, B1 had a Kd of 1.1 nM.

B2: BIIB-9-471 (antibody, V domains shown)
VH: QVQLQESGPGLVKPSQTLSLTCTVSGGSISSGGYYWSWIRQHPGKGLEWIGYIYYSGSTYYNPSLKSRVTISVDTSKNQFSLKLSSVTAADTAVYYCARSGVSGSGSDNWFDPWGQGTTVTVSS
VL: EIVLTQSPATLSLSPGERATLSCRASQSVSRYLAWYQQKPGQAPRLLIYDASNRATGIPARFSGSGSGTDFTLTISSLEPEDFAVYYCQQDYNYPFTFGGGTKVEIK
As to B2, binding was put at a Kd of 9.11 nM.

B3: BIIB-9-619 (antibody, V domains shown)
VH: QVQLVQSGAEVKKPGASVKVSCKASGYTFTSYYMHWVRQAPGQGLEWMGIINPSGGSTSYAQKFQGRVTMTRDTSTSTVYMELSSLRSEDTAVYYCARDGPRVSDYYMDVWGKGTTVTVSS
VL: B2 VL with R31S, D91R, Y92D, Y94W
Consider B3, for which binding was put at a Kd of 11.9 nM.

B4: BIIB-9-473 (antibody, V domains shown)
VH: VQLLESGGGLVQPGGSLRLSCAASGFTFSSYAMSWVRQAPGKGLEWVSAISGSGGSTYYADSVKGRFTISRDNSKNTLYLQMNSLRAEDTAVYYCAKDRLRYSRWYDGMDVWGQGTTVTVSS
VL: B2 VL with R31S, D91R, Y92S, N93F, Y94L, F96Y
With B4, binding was put at a Kd of 17.2 nM.

B5: BIIB-9-1268 (antibody, V domains shown)
VH: QVQLVQSGAEVKKPGASVKVSCKASGYTFTSYYMHWVRQAPGQGLEWMGIINPSGGSTSYAQKFQGRVTMTRDTSTSTVYMELSSLRSEDTAVYYCARDPPSWYVFDIWGQGTMVTVSS
VL: B2 VL with L4M, R31S, D91A, Y92T, N93V, Y94W
As for B5, the Kd stood at 51.5 nM. Compared with the last molecule, the Kd is about 3-fold higher.

B6: BIIB-9-622 (antibody, V domains shown)
VH: QVQLVQSGAEVKKPGASVKVSCKASGYTFTSYYMHWVRQAPGQGLEWMGIINPSGGSTSYAQKFQGRVTMTRDTSTSTVYMELSSLRSEDTAVYYCARDGATTVSYLSFDIWGQGTMVTVSS
VL: EIVMTQSPATLSVSPGERATLSCRASQSVSSSLAWYQQKPGQAPRLLIYGASTRATGIPARFSGSGSGTEFTLTISSLQSEDFAVYYCQQHSTWPPTFGGGTKVEIK
For B6, the equilibrium dissociation constant (Kd) turned out to be 18 nM.

B7: BIIB-9-477 (antibody, V domains shown)
VH: EVQLLESGGGLVQPGGSLRLSCAASGFTFSNYAMSWVRQAPGKGLEWVSAISGSGGSTYYADSVKGRFTISRDNSKNTLYLQMNSLRAEDTAVYYCARGGVYSSSWMRFWGQGTLVTVSS
VL: B6 VL with Y49F, H91D, S92V, T93N, P96I
For the molecule B7, binding was put at a Kd of 8.63 nM.

B8: BIIB-9-1285 (antibody, V domains shown)
VH: B6 VH with H35V, D99V, G100P, A101T, T102Y, T103R, V104Y, S108A
VL: B6 VL with S32N, H91A, T93N, W94F
For B8, the equilibrium dissociation constant (Kd) came out at 60.2 nM. This Kd lies about 7-fold higher than the previous one.

B9: BIIB-9-588 (antibody, V domains shown)
VH: QVQLVQSGAEVKKPGASVKVSCKASGYTFTSYYMHWVRQAPGQGLEWMGIINPSGGSTTYAQKFQGRVTMTRDTSTSTVYMELSSLRSEDTAVYYCARDGGGSYDYWSGYWYDVWGQGTTVTVSS
VL: B6 VL with S32N, H91A, S92Y, T93N, P96F
In turn, B9 registered a dissociation constant Kd of 16.5 nM.

B10: BIIB-9-564 (antibody, V domains shown)
VH: QVQLQESGPGLVKPSETLSLTCAVSGYSISSGYYWAWIRQPPGKGLEWIGSIYHSGSTYYNPSLKSRVTISVDTSKNQFSLKLSSVTAADTAVYYCARDPGYSWEYFDYWGQGTLVTVSS
VL: DIQMTQSPSSLSASVGDRVTITCRASQSISSYLNWYQQKPGKAPKLLIYAASSLQSGVPSRFSGSGSGTDFTLTISSLQPEDFATYYCQQSVAVPPTFGGGTKVEIK
With B10, the equilibrium dissociation constant (Kd) turned out to be 17.4 nM.

B11: BIIB-9-631 (antibody, V domains shown)
VH: QVQLVQSGAEVKKPGASVKVSCKASGYTFTSYYMHWVRQAPGQGLEWMGIINPSGGSTSYAQKFQGRVTMTRDTSTSTVYMELSSLRSEDTAVYYCARAENRGDYEAWGQGTLVTVSS
VL: B10 VL with L11V, S28G, S31R, Y32W, N34A, S91R, V92T, A93S, V94F, P96L
As to B11, binding was characterised by a dissociation constant (Kd) of 61.2 nM.

B12: BIIB-9-578 (antibody, V domains shown)
VH: QLQLQESGPGLVKPSETLSLTCTVSGGSISSSSYYWGWIRQPPGKGLEWIGSISYSGSTYYNPSLKSRVTISVDTSKNQFSLKLSSVTAADTAVYYCARDKYQDYSFDIWGQGTMVTVSS
VL: B10 VL with L11V, S28G, S30D, Y32W, N34A, S91A, V92N, A93F, V94L, P96F
B12 displayed a Kd of 4.91 nM.

B13: BIIB-9-568 (antibody, V domains shown)
VH: QLQLQESGPGLVKPSETLSLTCTVSGGSISSSSYYWGWIRQPPGKGLEWIGSIYYSGSTYYNPSLKSRVTISVDTSKNQFSLKLSSVTAADTAVYYCARDLGYAATYFDLWGRGTLVTVSS
VL: DIQMTQSPSSLSASVGDRVTITCQASQDISNYLNWYQQKPGKAPKLLIYDASNLETGVPSRFSGSGSGTDFTFTISSLQPEDIATYYCQQYDDYLTFGGGTKVEIK
B13 returned a dissociation constant Kd of 5.5 nM.

B14: BIIB-9-1276 (antibody, V domains shown)
VH: B13 VH with L101V, Y103R, A104T, A105Y, T106E, Y107L, L110I, R113Q, L116M
VL: B10 VL with L11V, S28G, Y32W, N34A, S91G, V92N, A93S, V94F, P96I
For B14, binding was put at a Kd of 32.4 nM.

B15: BIIB-9-608 (antibody, V domains shown)
VH: QLQLQESGPGLVKPSETLSLTCTVSGGSISSSSYYWGWIRQPPGKGLEWIGSIYYSGSTYYNPSLKSRVTISVDTSKNQFSLKLSSVTAADTAVYYCARDRLETSEAGMDVWGQGTTVTVSS
VL: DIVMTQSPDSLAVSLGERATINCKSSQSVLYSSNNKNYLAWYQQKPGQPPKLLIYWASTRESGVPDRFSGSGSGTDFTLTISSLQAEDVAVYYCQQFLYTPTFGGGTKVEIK
Consider B15, for which binding was put at a Kd of 11.4 nM.

B16: BIIB-9-451 (antibody, V domains shown)
VH: QLQLQESGPGLVKPSETLSLTCTVSGGSISSSSYYWGWIRQPPGKGLEWIGSISYSGSTYYNPSLKSRVTISVDTSKNQFSLKLSSVTAADTAVYYCARDSGGYYYQGFDYWGQGTLVTVSS
VL: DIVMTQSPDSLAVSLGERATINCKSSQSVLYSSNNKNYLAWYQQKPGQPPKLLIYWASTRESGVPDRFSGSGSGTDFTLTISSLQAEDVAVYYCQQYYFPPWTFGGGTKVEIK
In turn, B16 showed a dissociation constant (Kd) of 8.76 nM.

B17: BIIB-9-472 (antibody, V domains shown)
VH: EVQLVESGGGLVKPGGSLRLSCAASGFTFSSYSMNWVRQAPGKGLEWVSSISSSSSYIYYADSVKGRFTISRDNAKNSLYLQMNSLRAEDTAVYYCARGGRYSGSWSWNIWGQGTMVTVSS
VL: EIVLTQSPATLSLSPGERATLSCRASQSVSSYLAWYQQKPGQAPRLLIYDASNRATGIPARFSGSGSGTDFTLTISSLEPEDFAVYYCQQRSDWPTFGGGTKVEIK
The molecule B17 displayed a Kd of 8.99 nM.

The term Kd denotes the constant that tells how readily two partners part at equilibrium.
